“Also recorded” adds a separate entry of the source. Where two headings read alike, the source gives them in different places.
Tests used:
HMGB1 full-length = settings: CITED Xin et al., 2000; Table 1 lists under mHMGB1, p605 says full-length HMGB1; cited from earlier work
[1] = target: T1, HUNTHI, native histone-like protein HU (DNABII protein) of nontypeable Haemophilus influenzae (nontypeable Haemophilus influenzae …, UniProt P43722 1-90)
T1 sequence: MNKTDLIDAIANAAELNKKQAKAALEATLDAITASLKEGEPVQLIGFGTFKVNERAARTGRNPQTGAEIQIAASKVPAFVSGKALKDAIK

[2] = target: T2, IHFNTHI, native integration host factor (DNABII protein) of nontypeable Haemophilus influenzae (nontypeable Haemophilus influenzae …, UniProt P43723 1-96; P43724 1-94)
T2 sequence 1: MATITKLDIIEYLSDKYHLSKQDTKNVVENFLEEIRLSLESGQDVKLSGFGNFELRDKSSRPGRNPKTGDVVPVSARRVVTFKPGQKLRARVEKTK
T2 sequence 2: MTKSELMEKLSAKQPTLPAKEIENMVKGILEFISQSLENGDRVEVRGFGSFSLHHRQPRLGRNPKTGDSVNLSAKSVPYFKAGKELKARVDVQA

[3] = target: T1, HUNTHI, native histone-like protein HU …; assay: SPR (Biacore); mHMGB1 immobilised, HUNTHI injected; the text value differs from Table 1 (103)
[4] = test system: biofilms formed by UPEC, B. cenocepacia, NTHI, Enterobacter spp, S. aureus, K. pneumoniae, A. baumanii, P. aeruginosa, E. faecium; assay: Disruption of 24 h bacterial biofilms in vitro by HMGB1 isoforms (LIVE/DEAD stain, CLSM, COMSTAT average thickness); settings: 24 h biofilms of nine pathogens; 200 nM protein, 16 h (S. aureus 800 nM rHMGB1; E. faecium 800 nM, 1 h)
[5] = test system: pro-inflammatory and anti-inflammatory cytokines; assay: Quantitation of cytokines in middle ear fluids (cytometric bead array); format: in vivo, chinchilla (Chinchilla lanigera); settings: six days after NTHI challenge, one day after completion of treatment
Description: Quantitation of cytokines in middle ear fluids: To quantitate cytokines in middle ear fluids (MEF), a BD™ Cytometric Bead Array was performed with fluids collected at the time of animal sacrifice. With BD™ human-specific Flex Sets, each MEF was individually examined for relative quantity of IL-1β, IL-4, IL-6, IL-8, IL-10, IL12-p70, IL-13, IL-17A, TNF or IFNγ according to manufacturer's instructions. MEFs from each animal were assayed individually. Data were captured on a BD ACCURI™ C6 cytometer (BD Biosciences) and analyzed with FlowJo software (FlowJo, LLC). The concentration of cytokines in each MEF was determined using a standard curve and calculated using GraphPad Prism software.

HJ DNA = assay: Electrophoretic mobility shift assay (EMSA), binding to HJ DNA; settings: 20 nM 6-carboxyfluorescein HJ DNA, 50-500 nM protein, non-denaturing PAGE
Description: Arrows indicate the HJ DNA-protein complex.
FIG. 11A provides that NEM-modified rHMGB1 was confirmed by triton acetic acid urea gel (TAU gel). […] Arrows indicate the HJ DNA-protein complex.
Electrophoretic mobility shift assay (EMSA): EMSA was performed as previously described (Devaraj et al., 2019).

NTHI biofilms = assay: Disruption of NTHI biofilms in the middle ears of chinchillas with experimental otitis media; format: in vivo, chinchilla (Chinchilla lanigera); settings: 200 nM mHMGB1 and/or 342 nM Fabs
Description: As a negative control, an equivalent volume of sterile saline was delivered. One day after receipt of the second therapeutic dose, all animals were sacrificed and NTHI within the middle ear biofilms was enumerated. The relative amount of mucosal biofilm and mucosal inflammation were also qualitatively assessed.
First, effectiveness of single treatment was evaluated. To this end, a subset of animals in each cohort was sacrificed one day after receipt of a single therapeutic dose (FIG. 16H) whereas the remaining animals in each cohort were sacrificed 24 h after receipt of a second treatment.
Chinchilla model of experimental otitis media (OM): Adult chinchillas (Chinchilla lanigera) were obtained from Rauscher's Chinchilla Ranch, LLC. These outbred, non-specific pathogen-free animals were randomly divided into cohorts based on body weight and both male and female animals were enrolled. […] A concentration of 342 nM was based on prior studies wherein 5 μg intact IgG per 0.1 ml volume was injected into the middle ears of chinchillas (Goodman et al., 2011; Novotny et al., 2016; and Novotny et al., 2019).
Disruption of NTHI biofilms resident within the middle ears of chinchillas with experimental OM: Both middle ears of each animal were challenged with 1000 CFU NTHI strain 86-028NP by direct injection to induce experimental OM. Four days later, NTHI mucosal biofilms fill >50% of the middle ear (Novotny et al., 2011). […] To determine the outcome of treatment, animals were sacrificed one day after completion of antibody therapy, images of mucosal biofilms captured with a Zeiss SV6 dissecting microscope, then mucosal biofilms and middle ear mucosa collected, homogenized and plated on to chocolate agar to semi-quantitate the non-planktonic bacterial load within the middle ear (Goodman et al., 2011). […] As an additional assessment, the amount of biofilm in each middle ear was qualitatively determined. […] For both quantitation of bacterial load and qualitative assessment of mucosal biofilm, each middle ear was considered independent.

[6] = test system: eDNA lattice within K. pneumoniae biofilms; assay: Visualization of eDNA lattice structure within K. pneumoniae biofilms (immunofluorescence, CLSM); format: cell-based, Klebsiella pneumoniae; settings: 24 h K. pneumoniae biofilms, 200 nM protein, 16 h
Text: Per the model as disclosed herein, HMGB1 would compete with DNABII proteins, wherein instead of stabilization, HMGB1 would de-stabilize these HJ-like structures and consequently disrupt the biofilm.

E. faecium biofilms = assay: Disruption of 24 h E. faecium biofilms in vitro (CLSM, COMSTAT average thickness); settings: 24 h biofilms, 1 h incubation; non-bactericidal dose
UPEC biofilms = assay: Disruption of 24 h UPEC biofilms in vitro (CLSM, COMSTAT average thickness); settings: mHMGB1 200 nM, 16 h
B. cenocepacia = assay: Murine model of lung infection by B. cenocepacia, bacterial burden; settings: 0.2 nmol i.t. at 24 hpi; 72 hpi; α-EF-Tu labeling
Description: Intratracheal challenge of the murine lung with B. cenocepacia and treatment with HMGB1 isoforms: B. cenocepacia strain K56-2, was cultured in LB broth (Difco, Md.) at 37° C. overnight at 200 rpm. Bacterial concentration was adjusted before each experiment based on OD at 600 nm. C57BL/6 mice were infected intratracheally (i.t.) with 10^7 colony forming units (CFU) of B. cenocepacia. […] Animals were euthanized 24 or 48 hpi, and bronchoalveolar lavage (BAL) was collected with 1 ml of PBS plus 1 mM EDTA. […] The slides were permeabilized with 0.5% Triton X-100 for 10 minutes, blocked with 10% normal goat serum (Abcam) for 30 minutes and stained with a monoclonal antibody against E. coli Elongation Factor-Tu (α-EF-Tu; cross reacts with B. cenocepacia) (LSBio) overnight to label B. cenocepacia. The samples were then stained with goat α-mouse IgG Alexa Fluor 488 (Abcam) for 1 h at RT, mounted with fluoroshield media with DAPI (Abcam), visualized via the Nikon Eclipse Ti at 40× magnification (Nikon Instrument Inc. Americas) and analyzed by ImageJ software (NIH). To enumerate bacterial burden, the animals were euthanized 18 or 72 hpi, bronchoalveolar lavage was collected with 1 ml of PBS plus 1 mM EDTA, an aliquot of BAL was serially diluted and plated on LB agar. […] Neither animals nor samples were excluded from evaluation in any study.

[7] = Inflammatory cell recruitment into lungs of B. cenocepacia-challenged mice (H&E, flow cytometry of BAL); format: in vivo, C57BL/6 mice; settings: B. cenocepacia-challenged mice, 0.2 nmol, 72 hpi
neutrophils in BAL = assay: as above; format: in vivo, C57BL/6 mice; settings: B. cenocepacia-infected and simultaneously treated, 0.2 nmol, 18 hpi
Human neutrophils = assay: NET formation by neutrophils incubated with HMGB1 isoforms (CLSM); format: cell-based; settings: 200 nM protein, 3.5 h
Description: Neutrophils were fixed, then labeled as described above to visualize the NETs.
Visualization of NETs structure upon incubation of neutrophils with various isoforms of HMGB1: Human neutrophils were isolated from blood using the EASYSEP™ isolation kit (Stemcell Technologies Inc.). […] NETs were fixed in formalin, blocked with 10% normal goat serum (Life Technologies), and labeled with α-dsDNA monoclonal antibody (1 μg), and α-neutrophil elastase polyclonal antibody (1 μg) or naive rabbit and mouse isotype controls (1 μg) in 200 μl PBS for 16 h hours at 4° C. NETs were washed with PBS and incubated for 1 h with 1:200 dilution goat α-rabbit IgG conjugated to ALEXAFLUOR® 594, goat α-mouse IgG conjugated to ALEXAFLUOR® 488, and 1:500 dilution wheat germ agglutinin conjugated to ALEXAFLUOR® 350 (PMN membrane stain). NETs were imaged with a Zeiss LSM 800 confocal microscope (Carl Zeiss Inc.) and rendered with Zeiss Zen software.

With HJ DNA (cited) as the molecule, how does the Kd (HMGB1 full-length) read?
The Kd was 10 nM.

B1: mHMGB1 (C45S), recombinant human HMGB1 with an engineered single amino acid mutation C45S (other)
chain: MGKGDPKKPRGKMSSYAFFVQTCREEHKKKHPDASVNFSEFSKKSSERWKTMSAKEKGKFEDMAKADKARYEREMKTYIPPKGETKKKFKDPNAPKRPPSAFFLFCSEYRPKIKGEHPGLSIGDVAKKLGEMWNNTAADDKQPYEKKAAKLKEKYEKDIAAYRAKGKPDAAKKGVVKAEKSKKKKEEEEGEEDEEDEEEEEDEEDEDEEEDDDDE
notes: also called modified HMGB1
What does the source list for B1?
Kd [1]: 103 nM; Kd [2]: 579 nM; Kd [3]: 104 nM

B2: mHMGB1: recombinant human HMGB1 with engineered single amino acid mutation C45S, SEQ ID NO: 52 (protein)
chain: B1 chain
modifications: mHMGB1 (C45S)
Which “biofilm average thickness compared to control” value [4] does the source give for B2 here?
Its value is “significantly disrupted bacterial biofilms; also recorded: fully retained the anti-biofilm activity”.

What about the “IL-10 in middle ear fluids” value [5] of the same molecule?
Its value is “significantly elevated concentration; also recorded: statistically significant increase”.

And the “binding to HJ DNA (EMSA)” value (HJ DNA)?
Its value is “maintained its ability to bind HJ DNA; also recorded: retained its ability to bind to HJ DNA”.

And the “middle ears that cleared NTHI / culture-negative” value (NTHI biofilms; 24 h after one dose, 6 middle ears)?
Its value is 50%.

And the “NTHI in middle ears after two doses” value (NTHI biofilms; 24 h after second dose)?
The value was “further reduced”.

What about the “relative amount of remaining NTHI mucosal biofilm” value (NTHI biofilms; one or two doses) of the same molecule?
The value was “highly effective”.

And the “biofilm bacteria (FilmTracer FM 4-64)” value [6]?
The value was “substantial reduction in biofilm bacteria”.

What about the “web-like eDNA lattice structure within biofilm” value [6] of the same molecule?
Its value is “disruption of the web-like structure; also recorded: notably disrupted”.

What about the “dose required to achieve a similar reduction in biofilm average thickness, E. faecium” value (E. faecium biofilms) of the same molecule?
The value was “required a higher dose”.

And the “UPEC biofilm disruption in the presence of CbpA (negative control)” value (UPEC biofilms)?
Its value is “could still disrupt UPEC biofilms”.

And the “UPEC biofilm disruption in the presence of exogenously added RuvA” value (UPEC biofilms; competitor dose-dependent)?
Its value is “lost in the presence of competitors; also recorded: unable to disrupt biofilms formed by UPEC”.

And the “B. cenocepacia stained within the lung tissue” value (B. cenocepacia)?
The value was “significantly reduced bacterial load”.

What about the “infiltration of inflammatory cells into lungs (H&E)” value [7] of the same molecule?
The value was “no signs of inflammation”.

What about the “neutrophils in BAL (flow cytometry)” value (neutrophils in BAL) of the same molecule?
Its value is “eliminated the pro-inflammatory activity; also recorded: significant reduction of neutrophils in BAL compared to those treated with rHMGB1”.

And the “induction of NET formation by neutrophils” value (Human neutrophils)?
Its value is “intertwined NETs specifically formed; also recorded: more strongly induced NET formation”.

From patent US20230272054A1, “COMBINATION THERAPIES FOR THE TREATMENT AND PREVENTION OF BIOFILMS” (priority 2020, published 2023)
